Source: the supplement of paper PMC10567573
± gives the standard deviation.

Assay: protein stability index of a GFP-peptide fusion (GPS, HEK-293T) (PSI 1-6); higher = more stable
[1] = treatment: DMSO, c terminus: a fixed tail appended
[2] = treatment: MLN4924 1 uM, 8 h, c terminus: a fixed tail appended
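Further: 24-mer peptide tiles fused after GFP, lentivirally expressed, FACS-sorted into six equal bins by GFP/DsRed ratio, decoded by Illumina sequencing, PSI is the read-weighted mean bin number.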

Row | Sequence | protein stability index [1] | protein stability index [2] | protein stability index (treatment: DMSO, c terminus: native) | protein stability index (treatment: MLN4924 1 uM, 8 h, c terminus: native)
1 | EEDRPLGGGEGHQPAGNRRGQARR [BEX3] | 5.72 ± 0.14 | 5.563 ± 0.048 |  | 
2 | EQYERNKSSSSSSSSSSSSSSSSS [TMEM40] | 5.46 ± 0.32 | 5.49 ± 0.27 |  | 
3 | VNPWKREVKLLLSSETPIEGKNMS [APMAP] | 3.44 ± 0.25 | 3.62 ± 0.42 |  | 
4 | FPETTFISVTAYQNPQITQLKIAA [TBX6] | 2.58 ± 0.72 | 2.73 ± 0.59 |  | 
5 | FSLACSLMGPSRMSLFSLYMVQDQ [M1AP] | 3.19 ± 0.42 | 2.99 ± 0.32 |  | 
6 | TLICRKLGGVKKSATLRSFEGLMG [TPD52L3] | 2.06 ± 0.16 | 2.34 ± 0.33 |  | 
7 | MSAPGSPDQAYDFLLKFLLVGDRD [RAB40A] | 2.27 ± 0.23 | 2.42 ± 0.38 |  | 
8 | REAQQYSEALASTRILKHSPESSR [GLIPR2] | 4.92 ± 0.27 | 4.92 ± 0.3 |  | 
9 | QNEEYLLTYINEDRISTTFRLTTL [PLK2] | 2.6 ± 0.37 | 2.29 ± 0.58 |  | 
10 | AEEHREKLLKQMRILWKKIQENQR [TRIM43] | 2.46 ± 0.24 | 2.21 ± 0.18 |  | 
11 | ELSNFKSQKVLGLNEDPLKWWSDR [ZBED1] | 2.73 ± 0.17 | 2.97 ± 0.26 |  | 
12 | PDEMRMQALLIRERILGPSHPDTS [FEM1A] | 3.29 ± 0.26 | 3.56 ± 0.19 |  | 
13 | CSSCQRSWASAQVQILCHTYWEHW [RTP4] | 2.3 ± 0.52 | 2.36 ± 0.28 |  | 
14 | STASTTSTTNSTAAKPAASITSKP [ZNF207] | 5.15 ± 0.11 | 5.01 ± 0.19 |  | 
15 | QEDKALWEEEKALWVEERALLEGE [CCDC70] | 5.09 ± 0.3 | 5.17 ± 0.33 |  | 
16 | PGPREALSQLRVLCCEWLRPEKHT [ZNF232] | 2.36 ± 0.21 | 2.15 ± 0.4 |  | 
17 | EELQNKILTATVDNANILLQIDNA [KRT17] | 4.03 ± 0.095 | 4.3 ± 0.053 |  | 
18 | GLLLRGAVDGILHMFTPKLDKMLD [SLC6A17] | 2.35 ± 0.47 | 2.43 ± 0.66 |  | 
19 | RYEPLPPSLPAAGEQDCCGERVVI [KCNA3] | 4.04 ± 0.16 | 4.08 ± 0.34 |  | 
20 | EQLQQILKRKNKQAFLDELESSDL [MNAT1] | 3.48 ± 0.46 | 3.73 ± 0.39 |  | 
21 | TDLDAVRTPEPLEEFPKREDQEGS [MYBL2] | 5.43 ± 0.11 | 5.52 ± 0.21 |  | 
22 | DKNTLKDHMRKKQHRKINPKNREY [ZNF277] | 3.3 ± 0.33 | 3.28 ± 0.35 |  | 

Row | Sequence | protein stability index [1] | protein stability index [2] | protein stability index (treatment: DMSO, c terminus: native) | protein stability index (treatment: MLN4924 1 uM, 8 h, c terminus: native)
23 | LVDKETDKRHVEQKIQFKRETASL [PDZK1] | 4.72 ± 0.63 | 4.52 ± 0.92 |  | 
24 | QEEEQAETPMAPVPLGPLGETYCE [TRIM15] | 5.4 ± 0.17 | 5.57 ± 0.16 |  | 
25 | GCASFIYLRPQSNYSSSQDALISV [OR10K2] | 2.65 ± 0.81 | 2.54 ± 0.61 |  | 
26 | PEELRKVFITYSMDTAMEVVKFVN [TRAF3IP2] | 2.24 ± 0.46 | 2.08 ± 0.37 |  | 
27 | RARIAKGLRLCRPKAKAKAKAKAK [RPL29] | 4.16 ± 0.48 | 4 ± 0.38 |  | 
28 | GTPTSHVYMFKNGSGDSGDSSEEE [LYSMD4] | 5.37 ± 0.4 | 5.39 ± 0.28 |  | 
29 | INVPIRLECVKFASHCLMNHPDLA [PDS5B] | 2.28 ± 0.46 | 2.27 ± 0.17 |  | 
30 | RRGRHEQSPTSRPRKVSSLPPRSC [C22orf15] | 4.35 ± 0.066 | 4.61 ± 0.22 |  | 
31 | VSDSLTWREFHYIQSKLGIVSLLL [STEAP1] | 2.45 ± 0.54 | 2.18 ± 0.25 |  | 
32 | ESCEKNDPLSLLDDSKFPIEDTPL [PCDHGA10] | 5.5 ± 0.34 | 5.463 ± 0.028 |  | 
33 | MEKYERIRVVGRGAFGIVHLCLRK [NEK8] | 2.09 ± 0.21 | 2.33 ± 0.27 |  | 
34 | GRGDEASEEGQNGSSPKSKTKWTK [ADD1] | 5.22 ± 0.16 | 5.36 ± 0.36 |  | 
35 | LYAVGGHDGSSYLNSVERYDPKTN [KLHL20] | 3.72 ± 0.22 | 3.79 ± 0.23 |  | 
36 | QDIENALSTSSSPSGTPTNLRRHV [DLC1] | 4.96 ± 0.17 | 4.94 ± 0.2 |  | 
37 | DDMLLFDEQEKGIVTKFYQLSATG [FAN1] | 3.57 ± 0.3 | 3.46 ± 0.2 |  | 
38 | TELVLSDCMLSEEGATLLLRGLCA [LRRC45] | 2.32 ± 0.3 | 2.32 ± 0.24 |  | 
39 | MLNMWKVRELVDKATNVVMNYSEI [CLINT1] | 2.4 ± 0.17 | 2.23 ± 0.22 |  | 
40 | EGRFWKSKNEDRGEEEAESSISST [ZMYND11] | 5.65 ± 0.2 | 5.71 ± 0.13 |  | 
41 | ASHNGISYKDLDVIFGVELPGNEE [TENT5D] | 4.03 ± 0.16 | 4.01 ± 0.13 |  | 
42 | KTPVLLTDYPVDLDEIAYFTWAS [MYORG] |  |  | 2.25 ± 0.15 | 2.18 ± 0.3
43 | SEAPNEKLFFVDTGSKEKGLTKKR [NOP53] | 4.98 ± 0.44 | 5.37 ± 0.15 |  | 
44 | KLPLQIDCLAAWEEWLLVGTKQGH [VPS39] | 2.43 ± 0.41 | 2.47 ± 0.14 |  | 
